Earlier results, collected in article PMC3463409.

Target: Cys30 (UniProt position 49, FFSFFCPHCYQ)
Details: not stated (a thiol pKa implies the reduced form of the active-site cysteine)

For “Thiol:disulfide interchange protein DsbA (Escherichia coli)”, which pKa is on record?
The pKa was 3.5.
